From the supplement of paper PMC11246515
± gives the standard deviation of the averaged measurements.

Assay: total protein half-life in vivo (active degradation + dilution); higher = more stable protein
[1] = E. coli NCM3722 delta-clpP delta-lon delta-hslV, growth: N-lim chemostat, doubling time 6 h
[2] = E. coli NCM3722 delta-hslV, growth: N-lim chemostat, doubling time 6 h
[3] = E. coli NCM3722 delta-lon, growth: N-lim chemostat, doubling time 6 h
[4] = E. coli NCM3722 delta-smpB, growth: N-lim chemostat, doubling time 6 h
[5] = wild type E. coli NCM3722, growth: C-lim chemostat, doubling time 3 h
[6] = wild type E. coli NCM3722, growth: C-lim chemostat, doubling time 6 h
[7] = wild type E. coli NCM3722, growth: C-lim chemostat, doubling time 12 h
[8] = wild type E. coli NCM3722, growth: N-lim chemostat, doubling time 6 h
[9] = wild type E. coli NCM3722, growth: N-lim chemostat, doubling time 12 h
[10] = wild type E. coli NCM3722, growth: P-lim chemostat, doubling time 6 h
[11] = wild type E. coli NCM3722, growth: P-lim chemostat, doubling time 12 h
[12] = E. coli NCM3722 delta-clpP, growth: N-lim chemostat, doubling time 6 h

| Sequence | total protein half-life in vivo [1] [h] | total protein half-life in vivo [2] [h] | total protein half-life in vivo [3] [h] | total protein half-life in vivo [4] [h] | total protein half-life in vivo [5] [h] | total protein half-life in vivo [6] [h] | total protein half-life in vivo [7] [h] | total protein half-life in vivo [8] [h] | total protein half-life in vivo [9] [h] | total protein half-life in vivo [10] [h] | total protein half-life in vivo [11] [h] | total protein half-life in vivo [12] [h] |
| --- | --- | --- | --- | --- | --- | --- | --- | --- | --- | --- | --- | --- |
| MTIKLIVGLANPGAEYAATRHNAGAWFVDLLAERLRAPLREEAKFFGYTSRVTLGGEDVRLLVPTTFMNLSGKAVAAMASFFRINPDEILVAHDELDLPPGVAKFKLGGGHGGHNGLKDIISKLGNNPNFHRLRIGIGHPGDKNKVVGFVLGKPPVSEQKLIDEAIDEAARCTEMWFTDGLTKATNRLHAFKAQ [P0A7D1] | 5.126 ± 0.023 | 4.76 ± 0.084 | 5.04 ± 0.51 | 4.54 ± 0.08 | 3.19 ± 0.081 | 6.09 ± 0.37 | 10.5 ± 0.85 | 4.81 ± 0.17 | 8.06 ± 0.66 | 5.91 ± 0.13 | 11.4 ± 0.29 | – |
| MTILSLSRFMLAGVLLASFNASAIPGFWQQGYGQGNTEYSVTEASGKTFTINCTGNPDQNGFYQHSVFLTLADDKMVSSHDDDTTITVVMDHQQYIIPSSLGWRNGDNAWFDFISNISEAGQFDVYVNDHKAGTFTADRKNAEKVLSTLGDCSND | – | – | – | – | – | – | 5.33 | – | – | – | – | – |
| MTINFRRNALQLSVAALFSSAFMANAADVPQVKVTVTDKQCEPMTITVNAGKTQFIIQNHSQKALEWEILKGVMVVEERENIAPGFSQKMTANLQPGEYDMTCGLLTNPKGKLIVKGEATADAAQSDALLSLGGAITAYKAYVMAETTQLVTDTKAFTDAIKAGDIEKAKALYAPTRQHYERIEPIAELFSDLDGSIDAREDDYEQKAADPKFTGFHRLEKALFGDNTTKGMDQYAEQLYTDVVDLQKRISELAFPPSKVVGGAAGLIEEVAASKISGEEDRYSHTDLWDFQANVEGSQKIVDLLRPQLQKANPELLAKVDANFKKVDTILAKYRTKDGFETYDKLTDADRNALKGPITALAEDLAQLRGVLGLD [P0AB24] | 4.39 ± 0.98 | 6.43 ± 1.4 | 5.84 ± 0.061 | 4.58 ± 1.5 | 2.967 ± 0.019 | 6.25 ± 0.72 | 12.8 ± 0.93 | 5.73 ± 0.24 | 10.3 ± 0.23 | 5.01 ± 0.35 | 12.2 ± 2.8 | 4.5 ± 0.11 |
| MTISELLQYCMAKPGAEQSVHNDWKATQIKVEDVLFAMVKEVENRPAVSLKTSPELAELLRQQHSDVRPSRHLNKAHWSTVYLDGSLPDSQIYYLVDASYQQAVNLLPEEKRKLLVQL [P0AF50] | 6.83 ± 0.78 | 5.05 | 5.47 ± 0.13 | 4.39 | > 4 | 4.6917 ± 0.0045 | 7.14 ± 1.4 | 3.752 ± 0.03 | 8.4 ± 3 | 4.6 ± 1.2 | 9.9 ± 0.1 | 5.39 ± 0.71 |
| MTITSLDGYRWLKNDIIRGNFQPDEKLRMSLLTSRYALGVGPLREALSQLVAERLVTVVNQKGYRVASMSEQELLDIFDARANMEAMLVSLAIARGGDEWEADVLAKAHLLSKLEACDASEKMLDEWDLRHQAFHTAIVAGCGSHYLLQMRERLFDLAARYRFIWLRRTVLSVEMLEDKHDQHQTLTAAVLARDTARASELMRQHLLTPIPIIQQAMAGN | 5.31 ± 0.62 | 2.106 ± 0.011 | 3.54 ± 0.24 | 2.18 ± 0.088 | 1.96 ± 0.16 | 3.69 ± 0.43 | 5.04 ± 0.48 | 1.99 ± 0.21 | 2.52 ± 0.064 | 1.56 | 3.14 ± 1.1 | 2.81 ± 0.13 |
| MTIWVDADACPNVIKEILYRAAERMQMPLVLVANQSLRVPPSRFIRTLRVAAGFDVADNEIVRQCEAGDLVITADIPLAAEAIEKGAAALNPRGERYTPATIRERLTMRDFMDTLRASGIQTGGPDSLSQRDRQAFAAELEKWWLEVQRSRG [P0A8D3] | 3.56 ± 0.87 | 3.2 ± 0.18 | 3.89 ± 0.53 | 3.16 ± 0.032 | 2.73 ± 0.094 | 4.33 ± 0.21 | 8.06 ± 2.6 | 3.55 ± 0.43 | 4.5 ± 0.6 | 5.28 ± 0.43 | 9.109 ± 0.034 | 3.08 |
| MTIYFINWVADYELKMIQYLKKKYKIKNITTPKKYNWINKKISKIGMDNAWLGRLFIKHYLNDIKKDDIIIINDSVVNKGINKQILKNINCHKVLLLRNTVGEDFILDNANYFDIIYDFEHRFIGNEKIKAIEQFFPIGMDEIRNYSLSDKNNSQPICFFLGRDKGRLQIINELAERLTTLGCKLDFNVVKDKTSSTTSKYLIEKQISYEENIRRTLNANIIVDITKENQSGWTLRILEALFFNKKLITNNINVFGSEIYSESRFFIIGHDDWDKLEYFINSSVKPMDYDSLYKFSPDKMMSTIVSDFIDK | 7.07 ± 1.2 | 5.4 ± 0.26 | – | 4.651 ± 0.02 | 2.87 ± 0.037 | 4.87 ± 0.59 | 9.41 ± 2.8 | 5.54 ± 0.49 | 10.8 ± 2.5 | 4.59 ± 0.58 | 10.1 ± 1 | – |
| MTKQVKIYHNPRCSKSRETLNLLKENGVEPEVVLYLETPADAATLRDLLKILGMNSARELMRQKEDLYKELNLADSSLSEEALIQAMVDNPKLMERPIVVANGKARIGRPPEQVLEIVG | – | 3.65 ± 0.025 | 4.45 ± 0.96 | – | 3.47 ± 0.39 | 5.12 ± 0.37 | 7.332 ± 0.073 | 2.58 ± 0.029 | 4.7 ± 1.2 | 3.87 ± 0.41 | 8.07 ± 0.2 | 5.8 |
| MTKTVSTSKKPRKQHSPEFRSEALKLAERIGVTAAARELSLYESQLYNWRSKQQNQQTSSERELEMSTEIARLKRQLAERDEELAILQKAATYFAKRLK [P0CF66] | – | – | – | – | – | – | 3.53 | – | – | – | 5.25 ± 0.29 | – |
